B1: HuNb1 (VHH)
VHH: QVQLQESGGGLVQPGGSLRLSCAASGYAYTSDCMGWFRQTPGKGLEGVALIYTPGNSTNYADSVKGRFTISQDNSKSTVYLQMNSLRAEDTAMYYCAARRGACSLRLPFFYWGQGTLVTVSS
notes: as the VHH of m1; The nanobody alone as used in the ELISA, detected by an anti-HA antibody; also called CD47 Nb; source: E. coli WK6 (pMECS), purified (Ni-sepharose)
B2: HuNb1-biotin (VHH)
VHH: B1 VHH
notes: as the VHH of m1

Columns and labels:
[1] = biological target: T1, hCD47 (ECD)-Fc (Homo sapiens, UniProt Q08722); assay: ELISA; 5 μg/mL CD47 (ECD)-Fc proteins coated overnight at 4 °C, 1% BSA block, 10 μg/mL Nb for 1 h at room temperature; mouse anti-HA and anti-mouse IgG-alkaline phosphatase, A405; conditions: both partners purified
T1 construct: human CD47 ectodomain (ECD), residues 20-136; Cloned into a pFUSE vector; also called human CD47 (ECD)-Fc; recombinant hCD47 antigen
T1 sequence (Q08722 20-136): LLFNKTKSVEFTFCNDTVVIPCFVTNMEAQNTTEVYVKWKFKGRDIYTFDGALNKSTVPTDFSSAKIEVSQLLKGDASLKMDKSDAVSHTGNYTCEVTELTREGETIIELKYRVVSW

[2] = biological target: T2, rat CD47 (ECD)-Fc (Rattus norvegicus, UniProt P97829); assay: as above; conditions: both partners purified
T2 construct: rat CD47 ectodomain (ECD); source: HEK-293F, purified

[3] = biological target: T3, mouse CD47 (ECD)-Fc (Mus musculus, UniProt Q61735); assay: as above; conditions: both partners purified
T3 construct: mouse CD47 ectodomain (ECD); source: HEK-293F, purified

[4] = biological target: T4, human CD47 on the surface of cells (human (endogenous in Raji), UniProt Q08722); assay: flow cytometry on cells; competition: Raji cells co-incubated with HuNb1-biotin or Rituximab-biotin and unlabelled antibody; streptavidin-PE; conditions: one partner purified
T4 construct: human CD47 (integrin-associated protein) on the cell surface; also called hCD47; CD47 expressed on Raji cells; source: endogenous, on Raji cells; endogenous, on human RBCs of healthy donors
T4 sequence (Q08722 19-323): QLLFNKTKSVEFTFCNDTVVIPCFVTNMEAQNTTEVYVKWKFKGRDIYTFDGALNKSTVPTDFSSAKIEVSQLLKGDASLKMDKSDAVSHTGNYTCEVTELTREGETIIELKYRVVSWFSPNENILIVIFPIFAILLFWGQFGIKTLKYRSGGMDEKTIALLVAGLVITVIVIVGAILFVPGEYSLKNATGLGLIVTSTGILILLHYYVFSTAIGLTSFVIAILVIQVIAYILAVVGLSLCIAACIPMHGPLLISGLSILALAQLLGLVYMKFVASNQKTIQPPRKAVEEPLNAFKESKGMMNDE

Binder | binding result [1] | binding result [2] | binding result [3] | binding result [4]
B1 | binds | no binding (tested: 10 μg/mL) | no binding (tested: 10 μg/mL) | –
B2 | – | – | – | binds

— publication PMC6956557, “Preclinical development of a novel CD47 nanobody with less toxicity and enhanced anti-cancer therapeutic potential” (Journal of Nanobiotechnology, 2020)
